{"source": "patent US20250011456A1", "about": "“ANTIBODIES AGAINST CD14 AND USES THEREOF” (Villanelle Life Science Inc, priority 2023, published 2025)", "molecules": {"B1": {"name": "D6DD3D001: mouse-derived anti-CD14 IgG1 antibody; VH SEQ ID NO: 1, VL SEQ ID NO: 3, heavy chain SEQ ID NO: 2, light chain SEQ ID NO: 4 (antibody)", "heavy": "DVQLQQSGPGLVKPSQSLSLTCTVTGYSITSDSAWNWIRQFPGNRLEWMGYISYSGSTSYNPSLKSRISITRDTSKNQFFLQLNSVTTEDTATYYCVRGLRFAYWGQGTLVTVSSPSVFLFPPKPKDTLMISRTPEVTCVVVDVSHEDPEVKFNWYVDGVEVHNAKTKPREEQYNSTYRVVSVLTVLHQDWLNGKEYKCKVSNKALPAPIEKTISKAKGQPREPQVYTLPPSREEMTKNQVSLTCLVKGFYPSDIAVEWESNGQPENNYKTTPPVLDSDGSFFLYSKLTVDKSRWQQGNVFSCSVMHEALHNHYTQKSLSLSPGK", "light": "DIVLTQSPASLAVSLGQRATISCRASESVDSYVNSFLHWYQQKPGQPPKLLIYRASNLQSGIPARFSGSGSRTDFTLTINPVEADDVATYYCQQSNEDPYTFGGGTKLEIKRTVAAPSVFIFPPSDEQLKSGTASVVCLLNNFYPREAKVQWKVDNALQSGNSQESVTEQDSKDSTYSLSSTLTLSKADYEKHKVYACEVTHQGLSSPVTKSFNRGEC"}}, "key": {"[1]": {"test_system": "CD14 positive recurrent bladder cancer patient-derived xenograft (PDX)", "test": "Anti-CD14 IgG1/IgG4 with or without cisplatin, tumor treatment in PDX mice (tumor length, width, volume, tumor weight; Example 6)", "assay_type": "in vivo", "details": "for Tumor Length / Tumor Width: IgG1 5 mg/kg i.v. (Ex. 1), PDX mice 1-6", "from_the_text": "(§1) After removing the primary tumor tissue from the patient, the tissue was temporarily placed in a complete culture medium containing RPMI1640 (Gibco Roswell Park Memorial Institute 1640 Media)+PS (penicillin and streptomycin)+10% FBS (Fetal bovine serum). The tissue was then transported to a sterile operating room within an SPF-grade (Specific Pathogen Free) animal facility. The tumor tissue was cut to an appropriate size (5 millimeters (mm) in diameter). Severely immunodeficient NSG (NOD scid gamma mouse) mice were anesthetized using an isoflurane respirator. The tumor was transplanted subcutaneously into the right rib area through surgery. When the tumor volume reached 1 cm^3, it was passaged following the same procedure, and after expanding for three generations, the tumor became stable for use in formal experiments. During the experiment, passaging and expansion were performed as needed. When the tumor volume reached 100 mm^3, the mice were divided into groups according to the experimental requirements and treated with drugs.\nThe IgG4 tested is the original version of Atibuclimab.\nDrug administration on the PDX mice was performed intravenously."}, "[2]": {"test_system": "CD14 positive recurrent bladder cancer patient-derived xenograft (PDX)", "test": "Amount of anti-CD14-IgG1 (5-40 mg/kg) for tumor treatment in PDX mice (tumor length, width, volume, tumor weight; Example 7)", "assay_type": "in vivo", "details": "per mouse 1-5", "from_the_text": "as §1\nTo evaluate concentrations for the anti-CD14-IgG1 antibody, PDX mice were treated with five different concentrations of the IgG1 antibody over a period of 28 days. For these experiments, drug administration on the PDX mice was performed intravenously on alternating 4 days and 3 days.\nThe five different concentrations of the anti-CD14-IgG1 antibody tested include 5 mg/kg, 10 mg/kg, 15 mg/kg, 25 mg/kg, and 40 mg/kg. A control regimen was utilized as a comparative example. […] The non-specific IgG1 has no binding affinity to antigen. […] Tumor weight and tumor volume were calculated as described above."}, "[3]": {"details": "Day 4, IgG1 (10 mg/kg), 10 mg/kg"}}, "note": "Values joined by “and” are separate entries in the source; they are usually repeats but may differ in a detail not shown here. Equal entries are not always repeated.", "data": [{"molecule": "B1", "values": [{"measurement": "Tumor Length", "setting": "[1]; Day 0, 5 mg/kg", "result": "5.49 mm and 6.47 mm and 6.35 mm and 7.09 mm and 6.67 mm and 6.45 mm"}, {"measurement": "Tumor Width", "setting": "[1]; Day 0, 5 mg/kg", "result": "4.68 mm and 5.9 mm and 5.17 mm and 4.77 mm and 5.25 mm and 5.24 mm"}, {"measurement": "Tumor Length", "setting": "[1]; Day 4, 5 mg/kg", "result": "7.07 mm and 6.57 mm and 5.62 mm and 7.08 mm and 6.02 mm and 6.24 mm"}, {"measurement": "Tumor Width", "setting": "[1]; Day 4, 5 mg/kg", "result": "5.98 mm and 5.95 mm and 5.01 mm and 5.53 mm and 5.58 mm and 6.18 mm"}, {"measurement": "Tumor Length", "setting": "[1]; Day 7, 5 mg/kg", "result": "7.09 mm and 6.9 mm and 6.93 mm and 6.25 mm and 6.83 mm and 8.42 mm"}, {"measurement": "Tumor Width", "setting": "[1]; Day 7, 5 mg/kg", "result": "5.61 mm and 6.26 mm and 6.41 mm and 5.39 mm and 6.72 mm and 6.39 mm"}, {"measurement": "Tumor Length", "setting": "[1]; Day 11, 5 mg/kg", "result": "7.21 mm and 8.38 mm and 8.42 mm and 8.88 mm and 7.93 mm and 6.52 mm"}, {"measurement": "Tumor Width", "setting": "[1]; Day 11, 5 mg/kg", "result": "5.85 mm and 6.91 mm and 7.5 mm and 7.03 mm and 6.5 mm and 5.39 mm"}, {"measurement": "Tumor Length", "setting": "[1]; Day 14, 5 mg/kg", "result": "8.71 mm and 8.88 mm and 8.53 mm and 8.28 mm and 9.34 mm and 8.3 mm"}, {"measurement": "Tumor Width", "setting": "[1]; Day 14, 5 mg/kg", "result": "7.05 mm and 6.51 mm and 7.95 mm and 7.99 mm and 8.34 mm and 8.05 mm"}, {"measurement": "Tumor Length", "setting": "[1]; Day 18, 5 mg/kg", "result": "8.97 mm and 8.58 mm and 10.62 mm and 9.13 mm and 10.97 mm and 10.6 mm"}, {"measurement": "Tumor Width", "setting": "[1]; Day 18, 5 mg/kg", "result": "8.41 mm and 8.21 mm and 9.09 mm and 8.09 mm and 8.03 mm and 8.83 mm"}, {"measurement": "Tumor Length", "setting": "[1]; Day 21, 5 mg/kg", "result": "10.32 mm and 9.85 mm and 10.71 mm and 10.99 mm and 9.04 mm and 9.86 mm"}, {"measurement": "Tumor Width", "setting": "[1]; Day 21, 5 mg/kg", "result": "9.94 mm and 9.85 mm and 8.59 mm and 8.23 mm and 8.97 mm and 9.35 mm"}, {"measurement": "Tumor Length", "setting": "[1]; Day 25, 5 mg/kg", "result": "10.94 mm and 11.6 mm and 9.44 mm and 10.91 mm and 11.63 mm and 11.67 mm"}, {"measurement": "Tumor Width", "setting": "[1]; Day 25, 5 mg/kg", "result": "10.71 mm and 8.34 mm and 9.23 mm and 9.83 mm and 10.03 mm and 9.39 mm"}, {"measurement": "Tumor Length", "setting": "[1]; Day 28, 5 mg/kg", "result": "11.18 mm and 12.43 mm and 12.8 mm and 10.15 mm and 10.49 mm"}, {"measurement": "Tumor Width", "setting": "[1]; Day 28, 5 mg/kg", "result": "9.72 mm and 10.02 mm and 9.93 mm and 10.84 mm and 9.98 mm and 9.95 mm"}, {"measurement": "Tumor weight after 28 days", "setting": "[1]; IgG1 (5 mg/kg), Ex. 1, per mouse 1-6, 5 mg/kg", "result": "0.645 grams and 0.585 grams and 0.501 grams and 0.618 grams and 0.641 grams and 0.555 grams"}, {"measurement": "tumor suppression rate", "setting": "[1]; single anti-CD14-IgG1 5 mg/kg (Ex. 1), after 28 days, compared to the control group", "result": "about 50%"}, {"measurement": "Tumor Length", "setting": "[2]; Day 0, IgG1 (5 mg/kg), 5 mg/kg", "result": "4.41 mm and 4.54 mm and 4.71 mm and 5.12 mm and 4.93 mm"}, {"measurement": "Tumor Volume", "setting": "[2]; Day 0, IgG1 (5 mg/kg), 5 mg/kg", "result": "20.01 mm^3 and 19.41 mm^3 and 19.14 mm^3 and 19.44 mm^3 and 19.33 mm^3"}, {"measurement": "Tumor Volume", "setting": "[2]; Day 0, IgG1 (10 mg/kg), 10 mg/kg", "result": "59.69 mm^3 and 68.55 mm^3 and 77.15 mm^3 and 79.05 mm^3 and 79.08 mm^3"}, {"measurement": "Tumor Length", "setting": "[2]; Day 4, IgG1 (5 mg/kg), 5 mg/kg", "result": "5.58 mm and 6.11 mm and 6.53 mm and 5.89 mm and 6.64 mm"}, {"measurement": "Tumor Volume", "setting": "[2]; Day 4, IgG1 (5 mg/kg), 5 mg/kg", "result": "79.57 mm^3 and 87.80 mm^3 and 92.05 mm^3 and 94.26 mm^3 and 105.50 mm^3"}, {"measurement": "Tumor Width", "setting": "[2]; Day 4, IgG1 (5 mg/kg), 5 mg/kg", "result": "5.22 mm and 5.24 mm and 5.19 mm and 5.53 mm and 5.51 mm"}, {"measurement": "Tumor Length", "setting": "[2]; [3]", "result": "5.95 mm and 6.55 mm"}, {"measurement": "Tumor Volume", "setting": "[2]; [3]", "result": "81.63 mm^3 and 82.98 mm^3 and 85.32 mm^3 and 88.96 mm^3 and 108.37 mm^3"}, {"measurement": "Tumor Width", "setting": "[2]; [3]", "result": 5.12, "unit": "mm"}, {"measurement": "Tumor Volume", "setting": "[2]; Day 4, IgG1 (15 mg/kg), 15 mg/kg", "result": "76.19 mm^3 and 77.75 mm^3 and 81.95 mm^3 and 87.59 mm^3 and 90.56 mm^3"}, {"measurement": "Tumor Length", "setting": "[2]; Day 7, IgG1 (5 mg/kg), 5 mg/kg", "result": "7.84 mm and 6.11 mm and 6.37 mm and 6.61 mm and 6.56 mm"}, {"measurement": "Tumor Volume", "setting": "[2]; Day 7, IgG1 (5 mg/kg), 5 mg/kg", "result": "103.81 mm^3 and 104.99 mm^3 and 109.45 mm^3 and 121.23 mm^3 and 132.82 mm^3"}, {"measurement": "Tumor Width", "setting": "[2]; Day 7, IgG1 (5 mg/kg), 5 mg/kg", "result": "5.03 mm and 5.73 mm (2×) and 5.92 mm and 6.22 mm"}]}]}
